# T1: IL-1R1 on MRC-5 cells (ATCC CCL-171) (human, UniProt P14778 18-569)
# T1 sequence (looked up): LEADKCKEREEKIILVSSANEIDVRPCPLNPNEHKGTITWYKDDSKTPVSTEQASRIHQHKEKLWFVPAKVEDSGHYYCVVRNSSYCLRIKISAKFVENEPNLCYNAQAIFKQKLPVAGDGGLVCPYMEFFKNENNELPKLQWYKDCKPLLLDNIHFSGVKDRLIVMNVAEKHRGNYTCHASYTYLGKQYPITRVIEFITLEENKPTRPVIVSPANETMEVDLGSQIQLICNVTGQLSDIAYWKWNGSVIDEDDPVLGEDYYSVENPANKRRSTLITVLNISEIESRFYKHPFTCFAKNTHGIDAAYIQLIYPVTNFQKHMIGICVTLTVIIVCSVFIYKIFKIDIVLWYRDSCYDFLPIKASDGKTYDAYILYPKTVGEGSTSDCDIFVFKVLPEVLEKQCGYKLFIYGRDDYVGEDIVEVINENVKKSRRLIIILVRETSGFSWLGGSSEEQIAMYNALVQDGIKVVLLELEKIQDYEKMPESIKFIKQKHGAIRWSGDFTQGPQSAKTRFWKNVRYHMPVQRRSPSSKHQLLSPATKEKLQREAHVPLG
# Target: T1, IL-1R1 on MRC-5 cells (ATCC CCL-171)
# Assay: cell-based or functional assay
row,"ND50, inhibition of IL-1-induced IL-8 release from MRC-5 cells",Binder
1,~10 nM,DOM4-122-6 (other) VL: DIQMTQSPSSLSASVGDRVTITCRASQWIGRELRWYQQKPGKAPMFLIYHASRLQSGVPSRFSGSGSGTDFTLTISSLQPEDFATYYCQQYHGWPLTFGQGTKVEIKR
2,~10 nM,DOM4-129-1 (other) VL: DIQMTQSPSSLSASVGDRVTITCRASQNIDRELRWYQQKPGKAPMFLIYHASRLQRGVPSRFSGSGSGTDFTLTISSLQPEDFATYYCQQYHDFPLTFGQGTKVEIKR
3,~1 nM,DOM4-122-23 (other) VL: DIQMTQSPSSLSASVGDRVTITCRASQWIGRELRWYQQKPGKAPMFLIYHASRLQRGVPSRFSGSGSGTDFTLTISSLQPEDFATYYCQQYHGWPLTFGQGTKVEIKR

# — patent US20090155283A1 (published 2009)
